Source: FireProtDB (doi:10.1002/pro.2449)

B1: Guanyl-specific ribonuclease T1, P00651 (parent)
chain: MMYSKLLTLTTLLLPTALALPSLVERACDYTCGSNCYSSSDVSTAQAAGYQLHEDGETVGSNSYPHKYNNYEGFDFSVSSPYYEWPILSSGDVYSGGSPGADRVVFNENNQLAGVITHTGASGNNFVECT
B2: Guanyl-specific ribonuclease Sa, P05798 (parent)
chain: DVSGTVCLSALPPEATDTLNLIASDGPFPYSQDGVVFQNRESVLPTQSYGYYHEYTVITPGARTRGTRRIITGEATQEDYYTGDHYATFSLIDQTC

Columns and labels:
[1] = variants of: B1; conditions: Aspergillus oryzae (strain ATCC 42149 / RIB 40), pH 7, MOPS, transition: 2, reversible: yes, structure 1YGW, whole UniProt chain shown; for denaturant m value / denaturant midpoint (higher = more stable) / unfolding free energy: 25 °C, Urea; for Tm / change of melting temperature, mutant - wild type (higher = more stable) / ddG of mutation (higher = less stable) / unfolding enthalpy (calorimetric): Thermal, DSC
[2] = variants of: B2; conditions: Kitasatospora aureofaciens; pH 7; Thermal; DSC; MOPS; transition: 2; reversible: yes; structure 1RGG; whole UniProt chain shown

Variant | denaturant m value [1] [kcal/mol/M] | denaturant midpoint (higher = more stable) [1] [M] | unfolding free energy [1] [kcal/mol] | Tm [1] [°C] | change of melting temperature, mutant - wild type (higher = more stable) [1] [°C] | ddG of mutation (higher = less stable) [1] [kcal/mol] | unfolding enthalpy (calorimetric) [1] [kcal/mol] | change of melting temperature, mutant - wild type (higher = more stable) [2] [°C] | ddG of mutation (higher = less stable) [2] [kcal/mol] | unfolding enthalpy (calorimetric) [2] [kcal/mol]
T117A T119A | 1.21 | 1.9 | 2.3 | 40.5 | -12 | 3.7 | 96 |  |  | 
T117A T119V | 1.21 | 2.35 | 2.9 | 41.4 | -11 | 3.4 | 90 |  |  | 
T117V | 1.24 | 2.07 | 2.6 | 40.7 | -11.8 | 3.6 | 95 |  |  | 
T117A | 1.25 | 2.32 | 2.9 | 41.9 | -10.6 | 3.2 | 98 |  |  | 
T119A | 0.91 | 4.46 | 4.1 | 50.2 | -2.3 | 0.7 | 104 |  |  | 
T119V | 1.2 | 4.16 | 5 | 49.3 | -3.2 | 1 | 97 |  |  | 
T117V T119V | 1.32 | 2.19 | 2.9 |  |  |  |  |  |  | 
T117V T119A | 1.33 | 1.9 | 2.5 | 38.5 | -14 | 4.3 | 92 |  |  | 
S90A |  |  |  |  |  |  |  | 0.7 | -0.2 | 86
S3A |  |  |  |  |  |  |  | -1.1 | 0.3 | 86
S31A |  |  |  |  |  |  |  | 1.5 | -0.4 | 91
S48A |  |  |  |  |  |  |  | 1.7 | -0.5 | 92
N20A |  |  |  |  |  |  |  | -0.1 | 0 | 89
T95A |  |  |  |  |  |  |  | -2.1 | 0.6 | 97
S24A |  |  |  |  |  |  |  | -0.7 | 0.2 | 77
S9A |  |  |  |  |  |  |  | -4.5 | 1.3 | 91
N39A |  |  |  |  |  |  |  | -7.3 | 2 | 66
S42A |  |  |  |  |  |  |  | 0.4 | -0.1 | 92
